Measurements reported in publication PMC11838285 (bioRxiv, 2025).

Molecular target: RPB1 subunit of human RNA Polymerase II (human, UniProt P24928 1-1970)
Assay: cryo-EM structure

binding result: binds
B1: RECQL5_(1–620) D157A (domain or fragment)
chain: MSSHHTTFPFDPERRVRSTLKKVFGFDSFKTPLQESATMAVVKGNKDVFVCMPTGAGKSLCYQLPALLAKGITIVVSPLIALIQDQVDHLLTLKVRVSSLNSKLSAQERKELLADLEREKPQTKILYITPEMAASSSFQPTLNSLVSRHLLSYLVVAEAHCVSQWGHDFRPDYLRLGALRSRLGHAPCVALTATATPQVQEDVFAALHLKKPVAIFKTPCFRANLFYDVQFKELISDPYGNLKDFCLKALGQEADKGLSGCGIVYCRTREACEQLAIELSCRGVNAKAYHAGLKASERTLVQNDWMEEKVPVIVATISFGMGVDKANVRFVAHWNIAKSMAGYYQESGRAGRDGKPSWCRLYYSRNDRDQVSFLIRKEVAKLQEKRGNKASDKATIMAFDALVTFCEELGCRHAAIAKYFGDALPACAKGCDHCQNPTAVRRRLEALERSSSWSKTCIGPSQGNGFDPELYEGGRKGYGDFSRYDEGSGGSGDEGRDEAHKREWNLFYQKQMQLRKGKDPKIEEFVPPDENCPLKEASSRRIPRLTVKAREHCLRLLEEALSSNRQSTRTADEADLRAKAVELEHETFRNAKVANLYKASVLKKVADIHRASKDGQPYDM
